# Laboratory results from patent US20060024786A1, “WASP and N-WASP constructs and methods of expressing such constructs” (Cytokinetics, Inc., priority 2004, published 2006).
# B1: 199 miniWASP: residues 199-308 and 415-501 of SEQ ID NO:2 (protein, listed as Homo sapiens)
# chain: TVDIQNPDITSSRYRGLPAPGPSPADKKRSGKKKISKADIGAPSGFKHVSHVGWDPQNGFDVNNLDPDLRSLFSRAGISEAQLTDAETSKLIYDFIEDQGGLEAVRQEMRLPPALVPAGGLAPGGGRGALLDQIRQGIQLNKTPGAPESSALQPPPQSSEGLVGALMHVMQKRSRAIHSSDEGEDQAGDEDEDDEWD
# modifications: (1)..(502) FL-WASP
# B2: FL-N-WASP: full-length N-WASP, SEQ ID NO:4; expressed TAP-tagged in human 293 cells (protein, listed as Homo sapiens)
# chain: MSSVQQQPPPPRRVTNVGSLLLTPQENESLFTFLGKKCVTMSSAVVQLYAADRNCMWSKKCSGVACLVKDNPQRSYFLRIFDIKDGKLLWEQELYNNFVYNSPRGYFHTFAGDTCQVALNFANEEEAKKFRKAVTDLLGRRQRKSEKRRDPPNGPNLPMATVDIKNPEITTNRFYGPQVNNISHTKEKKKGKAKKKRLTKADIGTPSNFQHIGHVGWDPNTGFDLNNLDPELKNLFDMCGISEAQLKDRETSKVIYDFIEKTGGVEAVKNELRRQAPPPPPPSRGGPPPPPPPPHNSGPPPPPARGRGAPPPPPSRAPTAAPPPPPPSRPSVAVPPPPPNRMYPPPPPALPSSAPSGPPPPPPSVLGVGPVAPPPPPPPPPPPGPPPPPGLPSDGDHQVPTTAGNKAALLDQIREGAQLKKVEQNSRPVSCSGRDALLDQIRQGIQLKSVADGQESTPPTPAPTSGIVGALMEVMQKRSKAIHSSDEDEDEDDEEDFEDDDEWED
# modifications: TAP tag; (1)..(505) FL-N-WASP
# notes: expressed TAP-tagged in human 293 cells
# B3: 213 miniWASP: amino acid residues 213-308 and 415-501 of full length WASP (SEQ ID NO:2) (protein, listed as Homo sapiens)
# chain: RGLPAPGPSPADKKRSGKKKISKADIGAPSGFKHVSHVGWDPQNGFDVNNLDPDLRSLFSRAGISEAQLTDAETSKLIYDFIEDQGGLEAVRQEMRLPPALVPAGGLAPGGGRGALLDQIRQGIQLNKTPGAPESSALQPPPQSSEGLVGALMHVMQKRSRAIHSSDEGEDQAGDEDEDDEWD
# modifications: (1)..(502) FL-WASP
# B4: 98 N-WASP: N-WASP deletion mutant, amino acids 98-501 of SEQ ID NO:4; SEQ ID NO:12 (protein, listed as Homo sapiens)
# chain: FVYNSPRGYFHTFAGDTCQVALNFANEEEAKKFRKAVTDLLGRRQRKSEKRRDPPNGPNLPMATVDIKNPEITTNRFYGPQVNNISHTKEKKKGKAKKKRLTKADIGTPSNFQHIGHVGWDPNTGFDLNNLDPELKNLFDMCGISEAQLKDRETSKVIYDFIEKTGGVEAVKNELRRQAPPPPPPSRGGPPPPPPPPHNSGPPPPPARGRGAPPPPPSRAPTAAPPPPPPSRPSVAVPPPPPNRMYPPPPPALPSSAPSGPPPPPPSVLGVGPVAPPPPPPPPPPPGPPPPPGLPSDGDHQVPTTAGNKAALLDQIREGAQLKKVEQNSRPVSCSGRDALLDQIRQGIQLKSVADGQESTPPTPAPTSGIVGALMEVMQKRSKAIHSSDEDEDEDDEEDFEDDDEWED
# modifications: (1)..(408) 98N-WASP
# B5: 105WASP: WASP deletion mutant lacking the WH1 domain, amino acids 105-501; SEQ ID NO:10 (protein, listed as Homo sapiens)
# chain: LVYSTPTPFFHTFAGDDCQAGLNFADEDEAQAFRALVQEKIQKRNQRQSGDRRQLPPPPTPANEERRGGLPPLPLHPGGDQGGPPVGPLSLGLATVDIQNPDITSSRYRGLPAPGPSPADKKRSGKKKISKADIGAPSGFKHVSHVGWDPQNGFDVNNLDPDLRSLFSRAGISEAQLTDAETSKLIYDFIEDQGGLEAVRQEMRRQEPLPPPPPPSRGGNQLPRPPIVGGNKGRSGPLPPVPLGIAPPPPTPRGPPPPGRGGPPPPPPPATGRSGPLPPPPPGAGGPPMPPPPPPPPPPPSSGNGPAPPPLPPALVPAGGLAPGGGRGALLDQIRQGIQLNKTPGAPESSALQPPPQSSEGLVGALMHVMQKRSRAIHSSDEGEDQAGDEDEDDEWDD
# modifications: (1)..(398) 105WASP
# What was measured:
# [1] = target: T1, Cdc42, PIP2, Nck and Rac1 (Homo sapiens, UniProt P60953, G12V); assay: Regulation of WASP/N-WASP proteins by upstream regulators; format: biochemical; details: Cdc42 binds and activates the construct, which then activates Arp2/3 nucleation
# T1 construct: made in house; host or cells: E. coli BL21(DE3) or BL21 STAR
# T1 sequence (P60953 2-191 isoform P60953-1 G12V): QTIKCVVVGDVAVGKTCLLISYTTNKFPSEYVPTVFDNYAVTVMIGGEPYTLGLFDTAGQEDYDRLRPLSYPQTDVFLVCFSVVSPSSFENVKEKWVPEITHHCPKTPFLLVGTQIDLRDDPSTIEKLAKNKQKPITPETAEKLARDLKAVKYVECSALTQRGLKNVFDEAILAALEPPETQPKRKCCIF
# Source text: (§1) A second class of WASP and N-WASP proteins are those in which the WH-1 and PolyPro region have been at least partially removed. Specific examples of WASP and N-WASP proteins lacking at least a part or all of the WH1 and PolyPro regions include, but are not limited to, 213 miniWASP, 199 miniWASP and 105 miniWASP (see, FIGS. 3A and 3B). These three proteins each lack some or all of the WH-1 region, and the entire PolyPro region (approximately residues 309-414 of SEQ ID NO:2). The 213 miniWASP protein thus includes, for example, amino acid residues 213-308 and 415-501 from the full length WASP sequence (SEQ ID NO:2). 199 miniWASP includes residues 199-308 and 415-501 of SEQ ID NO:2). 105 miniWASP includes residues 105-308 and 415-501 of SEQ ID NO:2).
# (§2) A fourth class of WASP and N-WASP proteins that are provided are deletion mutants in which the PolyPro region is maintained but an N-terminal region (e.g., WH1 domain) is at least partially removed. Some proteins in this class are ones that include the B, CRIB/GBD, PolyPro and VCA domains but in which some or all of the WH1 has been removed. One specific example is 98N-WASP, which includes amino acids 98-501 of SEQ ID NO:4 (also assigned SEQ ID NO:12). Another specific example is the 105 WASP protein, which includes amino acids 105-501 of SEQ ID NO:10 (see FIG. 3A and 3B). […] They can also activate actin nucleation by Arp2/3.
# Arp2/3 complex = target: T2, Arp2/3 complex; assay: Arp2/3-mediated actin polymerization stimulated by WASP/N-WASP proteins; format: biochemical, human; details: for Activate Arp2/3?: Table 2
# T2 construct: prepared from an Arp2/3 source such as human platelets; from tissue; host or cells: cell extract, e.g. human platelets
# Method: Samples containing candidate agents (individually or as mixtures) are placed into wells on a multi-well plate. Mix 1 is added to each of the wells and mixed with the candidate agent. A sample of Mix 2 is then introduced into each well and the resulting mixture thoroughly mixed. Typically, Mix 1 and Mix 2 are mixed in 1:1 ratio (e.g., 50 μl each of Mix 1 and Mix 2).
# Actin polymerization is measured as a function of time by exciting pyrene at 365 nm and by detecting an increase in fluorescence emission at 407 nm. The change in fluorescence over time is utilized to determine a fluorescence parameter (e.g., maximal velocity, time to half maximal fluorescence intensity or area under the curve of a plot of fluorescence versus time).
# In a second set of experiments, the ability of various truncated forms of WASP were compared to the activity of the full-length protein. The polymerization assays were conducted in the presence of 500 nM Cdc42, 2.5 nm purified Arp2/3 complex and 3.5 μM actin. FL-WASP, 105 WASP and the VCA (see Example 7) domain were tested. The results of these trials were plotted to obtain EC50 values. The results are provided in FIG. 6 and in the chart below.
# [2] = Solubility of purified full-length protein; format: physicochemical; details: expressed in 293 cells, TAP-tag purification
# [3] = system: Cdc42, PIP2, Nck and Rac1; assay: Regulation of WASP/N-WASP proteins by upstream regulators; format: biochemical; details: Table 2
# Source text: as §1, §2
Molecule,regulation by Cdc42 [1],Activate Arp2/3? (Arp2/3 complex),Regulated By Which Upstream Regulators? [3],also measured
B1,regulated by Cdc42,,,
B2,,,,"stimulation of actin polymerization by the protein by itself (Arp2/3 complex; without upstream regulators, FIG. 5): only weakly stimulate actin polymerization; solubility of purified protein [2]: completely soluble"
B3,regulated by Cdc42,,,
B4,,Yes,"Cdc42, PIP2, Nck and Rac1",
B5,,Yes,"Cdc42, PIP2, Nck and Rac1",
